Results: paper PMC10397247
Blank lines part the entries; values can stand above or below the binder they belong to.

How the values were obtained:
4H2503-bH = biological target: T1, 4H2503-bH; assay: two-hybrid library CCNG1;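 also: natural log of median RNA to DNA barcode read ratio; higher means stronger binding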
T1 chain: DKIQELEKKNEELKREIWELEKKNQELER

4H2915-bH = biological target: T2, 4H2915-bH; assay: two-hybrid library CCNG1;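 also: natural log of median RNA to DNA barcode read ratio; higher means stronger binding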
T2 chain: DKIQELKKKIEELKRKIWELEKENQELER

4H2223-bH = biological target: T3, 4H2223-bH; assay: two-hybrid library CCNG1;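 also: natural log of median RNA to DNA barcode read ratio; higher means stronger binding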
T3 chain: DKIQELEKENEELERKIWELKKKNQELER

4H3277-bH = biological target: T4, 4H3277-bH; assay: two-hybrid library CCNG1;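 also: natural log of median RNA to DNA barcode read ratio; higher means stronger binding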
T4 chain: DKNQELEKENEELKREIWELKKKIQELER

4H2134-bH = biological target: T5, 4H2134-bH; assay: two-hybrid library CCNG1;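 also: natural log of median RNA to DNA barcode read ratio; higher means stronger binding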
T5 chain: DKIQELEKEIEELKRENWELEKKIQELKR

4H348-bH = biological target: T6, 4H348-bH; assay: two-hybrid library CCNG1;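 also: natural log of median RNA to DNA barcode read ratio; higher means stronger binding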
T6 chain: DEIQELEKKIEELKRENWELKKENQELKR

4H2717-bH = biological target: T7, 4H2717-bH; assay: two-hybrid library CCNG1
T7 chain: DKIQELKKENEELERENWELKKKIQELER

4H2692-bH = biological target: T8, 4H2692-bH; assay: two-hybrid library CCNG1
T8 chain: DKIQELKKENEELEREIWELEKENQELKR

4H2438-bH = biological target: T9, 4H2438-bH; assay: two-hybrid library CCNG1
T9 chain: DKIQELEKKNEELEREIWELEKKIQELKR

4H2588-bH = biological target: T10, 4H2588-bH; assay: two-hybrid library CCNG1
T10 chain: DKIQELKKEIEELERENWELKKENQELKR

4H741-bH = biological target: T11, 4H741-bH; assay: two-hybrid library CCNG1
T11 chain: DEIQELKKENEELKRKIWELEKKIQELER

4H182-bH = biological target: T12, 4H182-bH; assay: two-hybrid library CCNG1
T12 chain: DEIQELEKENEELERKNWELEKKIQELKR

4H3057-bH = biological target: T13, 4H3057-bH; assay: two-hybrid library CCNG1
T13 chain: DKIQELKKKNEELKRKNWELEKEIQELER

4H477-bH = biological target: T14, 4H477-bH; assay: two-hybrid library CCNG1
T14 chain: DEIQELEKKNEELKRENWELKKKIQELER

4H492-bH = biological target: T15, 4H492-bH; assay: two-hybrid library CCNG1
T15 chain: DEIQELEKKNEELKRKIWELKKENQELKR

4H2143-bH = biological target: T16, 4H2143-bH; assay: two-hybrid library CCNG1
T16 chain: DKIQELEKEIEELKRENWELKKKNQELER

4H121-bH = biological target: T17, 4H121-bH; assay: two-hybrid library CCNG1
T17 chain: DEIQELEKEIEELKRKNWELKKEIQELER

4H40-bH = biological target: T18, 4H40-bH; assay: two-hybrid library CCNG1
T18 chain: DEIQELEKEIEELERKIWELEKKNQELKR

4H319-bH = biological target: T19, 4H319-bH; assay: two-hybrid library CCNG1
T19 chain: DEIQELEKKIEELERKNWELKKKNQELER

4H2473-bH = biological target: T20, 4H2473-bH; assay: two-hybrid library CCNG1
T20 chain: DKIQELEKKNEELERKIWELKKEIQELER

4H2839-bH = biological target: T21, 4H2839-bH; assay: two-hybrid library CCNG1
T21 chain: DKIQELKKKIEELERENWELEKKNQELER

Core_INNN-es_KEEE = biological target: T22, Core_INNN-es_KEEE; assay: two-hybrid library CCmax; settings: mean of both orientations
T22 chain: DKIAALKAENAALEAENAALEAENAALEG

interaction score (4H2503-bH): -0.913
interaction score (4H2915-bH): 0.235
interaction score (4H2223-bH): 1.48
interaction score (4H3277-bH): -0.678
interaction score (4H2134-bH): 1.11
interaction score (4H348-bH): -0.636
interaction score (4H2717-bH): 0.068
interaction score (4H2692-bH): 0.482
interaction score (4H2438-bH): 1.45
interaction score (4H2588-bH): -1.11
interaction score (4H741-bH): -0.43
interaction score (4H182-bH): 0.0625
interaction score (4H3057-bH): 0.547
interaction score (4H477-bH): -1.3
interaction score (4H492-bH): -0.574
interaction score (4H2143-bH): 0.472
interaction score (4H121-bH): -0.364
interaction score (4H40-bH): -1.44
interaction score (4H319-bH): -1.11
interaction score (4H2473-bH): -0.404
interaction score (4H2839-bH): 1.02
B1: 4H121-bH (peptide)
chain: DEIQELEKEIEELKRKNWELKKEIQELER

interaction score (Core_INNN-es_KEEE): 1.79
B2: Core_INNN-es_EKKK (peptide)
chain: DEIAALEAKNAALKAKNAALKAKNAALKG
